Assay results from US20130053549A1 (UCB, published 2013).
Residue numbers refer to the chain shown, from its start.

Legend:
human serum albumin [1] = biological target: T1, human serum albumin (human, UniProt P02768 25-609); assay: SPR, Biacore 3000; construct captured by anti-human CH1 antibody, 50 nM HSA alone
T1 construct: Bought protein; also called HSA
Experimental: (§1) Covalent immobilisation of the capture antibody was achieved by standard amine coupling chemistry.
(§2) After each cycle, the capture surface was regenerated with 2×1 min injections of 40 mM HCl followed by 30 s of 5 mM NaOH. The flow rates used were 10 μl/min for capture, 30 μl/min for association and dissociation phases, and 10 μl/min for regeneration.

Ox40/mFc = biological target: T2, Ox40/mFc (UniProt P43489 29-214); assay: SPR, Biacore 3000; construct captured by anti-human CH1 antibody, 20 nM Ox40/mFc alone
T2 construct: Bought fusion protein; also called Ox40/mFc (AXXORA 1588)
T2 sequence (looked up): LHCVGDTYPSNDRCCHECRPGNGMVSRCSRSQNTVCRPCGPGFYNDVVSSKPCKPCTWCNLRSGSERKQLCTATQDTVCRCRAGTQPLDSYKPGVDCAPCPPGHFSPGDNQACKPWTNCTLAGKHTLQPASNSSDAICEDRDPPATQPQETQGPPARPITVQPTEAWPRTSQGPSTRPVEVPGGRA
Experimental: as §1, §2

TNF = biological target: T3, TNF (human, UniProt P01375 77-233); assay: SPR, Biacore 3000; sample captured by anti-human CH1 antibody, TNF as analyte
T3 construct: also called TNF (Strathmann hTNFa); hTNFa
Experimental: as §1, §2
(§3) Kinetic parameters were determined by simultaneous global-fitting of the resulting sensorgrams to a standard 1:1 binding model using Biacore 3000 Evaluation Software v3.2

IL-6 [2] = biological target: T4, IL-6 (UniProt P05231 30-212, limits assumed); assay: SPR, Biacore T100; sample captured by anti-human CH1 antibody, IL-6 as analyte
IL-6 [3] = biological target: T4, IL-6; assay: SPR, Biacore T100; sample captured by anti-human CH1 antibody, IL-6 as analyte; kinetics not given
human serum albumin [4] = biological target: T1, human serum albumin; assay: SPR, Biacore T100; sample captured by anti-human CH1 antibody, HSA as analyte, 1:1 fit
Experimental: as §1, §2
Kinetic parameters were determined by simultaneous global-fitting of the resulting sensorgrams to a standard 1:1 binding model using Biacore T100 Evaluation Software v2.0.1.

human serum albumin [5] = biological target: T1, human serum albumin; assay: SPR, Biacore T100; sample captured by anti-human CH1 antibody, HSA as analyte
Experimental: as §1, §2
A blank flow-cell was used for reference subtraction and buffer-blank injections were included to subtract instrument noise and drift.

IL13 = biological target: T5, IL13 (UniProt P35225 35-146, limits assumed); assay: SPR, Biacore 3000; sample captured by anti-human CH1 antibody, IL13 as analyte
T5 construct: also called IL13 (R&D 213IL)
Experimental: as §1, §2, §3

B1: A26Fab-(3xG4S)-645dsFv-(3xG4S)-870Fv (other)
heavy: EVQLVESGGGLVQPGGSLRLSCAASGFTFTNYGIHWIRQAPGKGLEWVASISPSGGLTYYRDSVKGRFTISRDDAKNSPYLQMNSLRAEDTAVYYCATGGEGIFDYWGQGTLVTVSSASTKGPSVFPLAPSSKSTSGGTAALGCLVKDYFPEPVTVSWNSGALTSGVHTFPAVLQSSGLYSLSSVVTVPSSSLGTQTYICNVNHKPSNTKVDKKVEPKSCSGGGGSGGGGSGGGGSEVQLLESGGGLVQPGGSLRLSCAVSGIDLSNYAINWVRQAPGKCLEWIGIIWASGTTFYATWAKGRFTISRDSTTVYLQMNSLRAEDTAVYYCARTVPGYSTAPYFDLWGQGTLVTVSSGGGGSGGGGSGGGGSEVQLVESGGGLVQPGGSLRLSCAASGYVFTDYGMNWVRQAPGKGLEWMGWINTYIGEPIYADSVKGRFTFSLDTSKSTAYLQMNSLRAEDTAVYYCARGYRSYAMDYWGQGTLVTVSS
light: DIQMTQSPSSLSASVGDRVTITCRATQSIYNALAWYQQKPGKAPKLLIYNANTLHTGVPSRFSASGSGTDSTLTISSLQPEDFATYYCQQYYDYPLTFGGGTKVEIKRTVAAPSVFIFPPSDEQLKSGTASVVCLLNNFYPREAKVQWKVDNALQSGNSQESVTEQDSKDSTYSLSSTLTLSKADYEKHKVYACEVTHQGLSSPVTKSFNRGECSGGGGSGGGGSGGGGSDIVMTQSPSSVSASVGDRVTITCQSSPSVWSNFLSWYQQKPGKAPKLLIYEASKLTSGVPSRFKGSGSGTDFTLTISSLQPEDFATYYCGGGYSSISDTTFGCGTKVEIKGGGGSGGGGSGGGGSDIQMTQSPSSLSASVGDRVTITCKASQNVGTNVAWYQQKPGKAPKALIYSASFLYSGVPYRFSGSGSGTDFTLTISSLQPEDFATYYCQQYNIYPLTFGQGTKVEIK
notes: Trispecific Fab-Fv-Fv (OX40, HSA, TNF); terminal 870 Fv without a disulfide (-DS read as Fv); HEK293 supernatant; also called A26-645-870-DS; A26Fab-645Fv-652/870Fv
Q: Which “Response RU” value (human serum albumin [1]) does the source give for B1 here?
A: 11 RU

Q: And the “Response RU” value (Ox40/mFc)?
A: 31 RU

Q: What about the “Affinity (fold loss against the parent)” value (TNF) of the same binder?
A: 2 fold

Q: What about the Stoichiometry (TNF) of the same binder?
A: 0.39

B2: A26Fab 645Fv 1G4S 1189Fv (other)
heavy: EVQLVESGGGLVQPGGSLRLSCAASGFTFTNYGIHWIRQAPGKGLEWVASISPSGGLTYYRDSVKGRFTISRDDAKNSPYLQMNSLRAEDTAVYYCATGGEGIFDYWGQGTLVTVSSASTKGPSVFPLAPSSKSTSGGTAALGCLVKDYFPEPVTVSWNSGALTSGVHTFPAVLQSSGLYSLSSVVTVPSSSLGTQTYICNVNHKPSNTKVDKKVEPKSCSGGGGSGGGGSGGGGSEVQLLESGGGLVQPGGSLRLSCAVSGIDLSNYAINWVRQAPGKCLEWIGIIWASGTTFYATWAKGRFTISRDSTTVYLQMNSLRAEDTAVYYCARTVPGYSTAPYFDLWGQGTLVTVSSGGGGSEVQLVESGGGLVQPGGSLRLSCAASGFTFNDYDMAWVRQAPGKCLEWVASITPSGGGTYYRDSVKGRFTISRDNAKNSLYLQMNSLRAEDTAVYYCARHGYTLDYFEYWGQGTMVTVSS
light: DIQMTQSPSSLSASVGDRVTITCRATQSIYNALAWYQQKPGKAPKLLIYNANTLHTGVPSRFSASGSGTDSTLTISSLQPEDFATYYCQQYYDYPLTFGGGTKVEIKRTVAAPSVFIFPPSDEQLKSGTASVVCLLNNFYPREAKVQWKVDNALQSGNSQESVTEQDSKDSTYSLSSTLTLSKADYEKHKVYACEVTHQGLSSPVTKSFNRGECSGGGGSGGGGSGGGGSDIVMTQSPSSVSASVGDRVTITCQSSPSVWSNFLSWYQQKPGKAPKLLIYEASKLTSGVPSRFKGSGSGTDFTLTISSLQPEDFATYYCGGGYSSISDTTFGCGTKVEIKGGGGSDIQMTQSPSSLSASVGDRVTITCLASEGISNDLAWYQQKPGKAPKLLIYDATRLQDGVPSRFSGSGSGTDFTLTISSLQPEDFATYYCQQSYKYPWTFGCGTKLEIK
notes: Trispecific Fab-Fv-Fv (OX40, HSA, IL-6); second linker 1xG4S; HEK293 supernatant; also called A26Fab-645Fv-1189Fv; FabFvFv
Q: Which Stoichiometry (IL-6 [2]) does the source give for B2 here?
A: 0.06

Q: What about the RU of binding (IL-6 [3]) of the same binder?
A: 1 RU

Q: What about the Kd (human serum albumin [4]) of the same binder?
A: 11.3 nM

Q: What about the koff (human serum albumin [4]) of the same binder?
A: 0.000379 s⁻¹

Q: What about the kon (human serum albumin [4]) of the same binder?
A: 33400 M⁻¹ s⁻¹

Q: And the Stoichiometry (human serum albumin [5])?
A: 0.39

B3: A26Fab-(3xG4S)-645dsFv-(3xG4S)-652dsFv (other)
heavy: EVQLVESGGGLVQPGGSLRLSCAASGFTFTNYGIHWIRQAPGKGLEWVASISPSGGLTYYRDSVKGRFTISRDDAKNSPYLQMNSLRAEDTAVYYCATGGEGIFDYWGQGTLVTVSSASTKGPSVFPLAPSSKSTSGGTAALGCLVKDYFPEPVTVSWNSGALTSGVHTFPAVLQSSGLYSLSSVVTVPSSSLGTQTYICNVNHKPSNTKVDKKVEPKSCSGGGGSGGGGSGGGGSEVQLLESGGGLVQPGGSLRLSCAVSGIDLSNYAINWVRQAPGKCLEWIGIIWASGTTFYATWAKGRFTISRDSTTVYLQMNSLRAEDTAVYYCARTVPGYSTAPYFDLWGQGTLVTVSSGGGGSGGGGSGGGGSQVTLKESGPVLVKPTETLTLTCTVSGFSLTNYHVQWIRQPPGKCLEWLGVMWSDGDTSFNSVLKSRLTISRDTSKSQVVLTMTNMDPVDTATYYCARDGTIAAMDYFDYWGQGTLVTVSS
light: DIQMTQSPSSLSASVGDRVTITCRATQSIYNALAWYQQKPGKAPKLLIYNANTLHTGVPSRFSASGSGTDSTLTISSLQPEDFATYYCQQYYDYPLTFGGGTKVEIKRTVAAPSVFIFPPSDEQLKSGTASVVCLLNNFYPREAKVQWKVDNALQSGNSQESVTEQDSKDSTYSLSSTLTLSKADYEKHKVYACEVTHQGLSSPVTKSFNRGECSGGGGSGGGGSGGGGSDIVMTQSPSSVSASVGDRVTITCQSSPSVWSNFLSWYQQKPGKAPKLLIYEASKLTSGVPSRFKGSGSGTDFTLTISSLQPEDFATYYCGGGYSSISDTTFGCGTKVEIKGGGGSGGGGSGGGGSDIQMTQSPSSLSASVGDRVTITCLASEDISNYLAWYQQKPGKAPKLLIYHTSRLQDGVPSRFSGSGSGTDFTLTISSLQPEDFATYYCQQGYRFPLTFGCGTKVEIKR
notes: Trispecific Fab-Fv-Fv (OX40, HSA, IL13); terminal 652 Fv with a disulfide (+DS read as dsFv); HEK293 supernatant; also called A26-645-652+DS; A26Fab-645Fv-652/870Fv
Q: B3 was tested. Which “Response RU” value (human serum albumin [1]) did it give?
A: 11 RU

Q: And the “Response RU” value (Ox40/mFc)?
A: 39 RU

Q: What about the “Affinity (fold loss against the parent)” value (IL13) of the same binder?
A: 2 fold

Q: And the Stoichiometry (IL13)?
A: 0.88

B4: A26Fab-(3xG4S)-645dsFv-(3xG4S)-652Fv (other)
heavy: B3 heavy with C414A
light: DIQMTQSPSSLSASVGDRVTITCRATQSIYNALAWYQQKPGKAPKLLIYNANTLHTGVPSRFSASGSGTDSTLTISSLQPEDFATYYCQQYYDYPLTFGGGTKVEIKRTVAAPSVFIFPPSDEQLKSGTASVVCLLNNFYPREAKVQWKVDNALQSGNSQESVTEQDSKDSTYSLSSTLTLSKADYEKHKVYACEVTHQGLSSPVTKSFNRGECSGGGGSGGGGSGGGGSDIVMTQSPSSVSASVGDRVTITCQSSPSVWSNFLSWYQQKPGKAPKLLIYEASKLTSGVPSRFKGSGSGTDFTLTISSLQPEDFATYYCGGGYSSISDTTFGCGTKVEIKGGGGSGGGGSGGGGSDIQMTQSPSSLSASVGDRVTITCLASEDISNYLAWYQQKPGKAPKLLIYHTSRLQDGVPSRFSGSGSGTDFTLTISSLQPEDFATYYCQQGYRFPLTFGGGTKVEIK
notes: Trispecific Fab-Fv-Fv (OX40, HSA, IL13); terminal 652 Fv without a disulfide (-DS read as Fv); HEK293 supernatant; also called A26-645-652-DS; A26Fab-645Fv-652/870Fv
Q: What does the source list for B4?
A: Response RU (human serum albumin [1]): 12 RU; Response RU (Ox40/mFc): 42 RU; Stoichiometry (IL13): 0.95
